Series [1] addresses T1, TRBP dsRBD2 (TARBP2) (Homo sapiens) (UniProt Q15633).
T1 sequence: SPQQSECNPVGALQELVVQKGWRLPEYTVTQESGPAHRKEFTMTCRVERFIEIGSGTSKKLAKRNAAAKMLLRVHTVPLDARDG
The note with it: CITED; isolated dsRBD2; cited from earlier work.

Series [2] addresses T2, Xlrbpa dsRBD2 (printed Xlbpra) (Xenopus laevis) (UniProt Q91836).
T2 sequence: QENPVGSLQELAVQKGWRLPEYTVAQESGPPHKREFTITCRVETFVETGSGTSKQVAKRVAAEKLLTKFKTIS
The note with it: CITED; isolated dsRBD2; cited from earlier work.

A further series has as its target T3, MBNL1(3-4,3-4) (Homo sapiens).
T3 chain: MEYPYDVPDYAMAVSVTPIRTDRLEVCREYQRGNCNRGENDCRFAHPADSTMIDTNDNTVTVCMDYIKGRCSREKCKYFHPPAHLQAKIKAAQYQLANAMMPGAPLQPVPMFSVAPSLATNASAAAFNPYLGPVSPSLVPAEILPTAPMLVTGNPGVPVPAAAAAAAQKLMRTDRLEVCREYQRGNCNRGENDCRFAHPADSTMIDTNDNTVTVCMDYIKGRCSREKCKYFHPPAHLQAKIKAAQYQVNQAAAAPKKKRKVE
Briefly: EMSA; 115 mM NaCl, 20 mM Tris pH 7.5, 5 mM MgCl2, heparin, room temperature; apparent Kd. The note with it: label: 5'-32P; short hairpin (predicted). The text has this:
(§1) All synthetic MBNL1 proteins were expressed and purified as N-terminal glutathione S-transferase (GST) fusions (FIG. 4A). These proteins were then used in electrophoretic mobility shift assays (EMSAs) with CUG₄ RNA substrate. The fraction of radiolabeled RNA bound to the protein was used to determine an apparent KD (dissociation constant). […] (FIG. 4B).
(§2) All RNA substrates were ordered from IDT (Coralville, Iowa) or Dharmacon (Lafayette, Colo.) and 5′ end-labelled using T4 PNK (NEB, Ipswich, Mass.) with [γ-³²P] ATP. All RNAs were purified on 10% polyacrylamide denaturing gels. Prior to incubation with protein, these RNAs were denatured by incubation at 95° C. for 2 minutes followed by a 5 minute incubation on ice. Once cooled the RNA was mixed with increasing concentrations of protein (final volume=10 μl) to yield final reaction conditions of 115 mM NaCl, 20 mM Tris pH 7.5, 1 mM β-ME, 0.01 mM EDTA, 10% glycerol, 5 mM MgCl₂, 0.1 mg/ml heparin, 2 mg/ml bovine serum albumin (BSA), and 0.02% xylene cyanol. […] Binding curves were quantified using ImageQuant software (GE Healthcare Life Sciences, Pittsburgh, Pa.). The fraction of RNA bound was calculated as the ratio of all RNA-protein complexes divided by total RNA signal in each lane. The apparent Kd was then determined using the following equation: fbound=fₘₐₓ([MBNL1]/([MBNL1+Kd)).

A further series has as its target T4, MBNL1(1-2,1-2) (Homo sapiens).
T4 chain: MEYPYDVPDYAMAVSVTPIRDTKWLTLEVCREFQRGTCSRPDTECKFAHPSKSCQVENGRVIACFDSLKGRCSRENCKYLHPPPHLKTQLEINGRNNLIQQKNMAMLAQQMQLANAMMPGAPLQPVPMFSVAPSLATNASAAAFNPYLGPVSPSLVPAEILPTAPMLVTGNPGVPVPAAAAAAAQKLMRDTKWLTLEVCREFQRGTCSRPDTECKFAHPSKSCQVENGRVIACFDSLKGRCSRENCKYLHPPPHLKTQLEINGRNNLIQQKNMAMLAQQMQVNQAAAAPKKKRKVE
Described as above. The note with it: label: 5'-32P; short hairpin (predicted).
Excerpt: as §1, §2

For series [3], the target named is T5, WT-MBNL1 (truncated, aa 1-260 with HA tag and SV40 NLS) (Homo sapiens, UniProt Q9NR56 SEQ:14-272).
T5 chain: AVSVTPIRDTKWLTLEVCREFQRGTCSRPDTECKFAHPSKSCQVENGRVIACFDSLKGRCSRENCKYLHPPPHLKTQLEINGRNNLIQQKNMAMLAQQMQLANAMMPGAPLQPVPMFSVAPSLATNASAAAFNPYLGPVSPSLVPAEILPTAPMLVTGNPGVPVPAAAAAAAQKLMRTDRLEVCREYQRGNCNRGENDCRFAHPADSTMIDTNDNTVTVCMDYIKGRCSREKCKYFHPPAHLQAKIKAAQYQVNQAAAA
Kind of series: EMSA; 115 mM NaCl, 20 mM Tris pH 7.5, 5 mM MgCl2, heparin, room temperature; apparent Kd; repeated with another batch in FIG. 10C. The note with it: label: 5'-32P; short hairpin (predicted).
Excerpt: as §1, §2

In the case of HIV TAR RNA, the Kd in series [1] was 59 nM. Consider 30 bp synthetic dsRNA, for which, in series [2], the Kd is 11 nM.

For the molecule GCUGCUGUUCGCUGCUG (ssRNA) [CUG4], the Kd with MBNL1(3-4,3-4) was 257 nM; in the series with MBNL1(1-2,1-2) it was 269 nM; in series [3] it was 196 nM.

The record behind these values is US20190177380, “SYNTHETIC MBNL PROTEINS FOR TREATMENT OF REPEAT EXPANSION DISEASE” (University of Florida Research Foundation, Incorporated, published 2019).
